Results on 14 molecules are retold here after publication PMC6733756.

Read-outs that look alike come from different tables or passages of the source.

Test [1] deals with human XCR1 (human) (UniProt P46094).
The target is the same in test [2]. Description: radioligand binding.
The target is the same in test [3]. This is another data set of the same source.
The target is the same in test [4]. Description: radioligand binding. The source holds these as a separate data set.

One may read the EC50 as the concentration needed to bring the measured effect to its halfway point.

On to “XCL1 +Gly^N-term (from UniProt P47992 22-114) (ligand)”, for which the calcium flux in XCR1-expressing HEK293 cells, EC50 in test [1] is over 268 nM. The fold decrease in affinity against XCL1 CC3 in test [2] was over 100 fold. In the case of “XCL1 ΔVal^1 (from UniProt P47992 22-114) (ligand)”, in test [2], the fold decrease in affinity against XCL1 CC3 was over 100 fold.

B1: XCL1 CC3 (ligand)
chain: VGSEVSDKRTCVSLTTQRLPCSRIKTYTITEGSLRAVIFITKRGLKVCADPQATWVRDCVRSMDRKSNTRNNMIQTKPTGTQQSTNTAVTLTG
Take B1: the ^3H-IP3 accumulation in COS-7 cells transfected with XCR1 and Gqi4myr, EC50 in test [3] worked out at 14.1 nM. The molecule further returned a half-maximal effective concentration (EC50) in test [2] of 1 nM.

B2: XCL1 CC3 K8A (ligand)
chain: VGSEVSDARTCVSLTTQRLPCSRIKTYTITEGSLRAVIFITKRGLKVCADPQATWVRDCVRSMDRKSNTRNNMIQTKPTGTQQSTNTAVTLTG
In the case of B2, the calcium flux in XCR1-expressing HEK293 cells, EC50 in test [1] was over 268 nM. In addition, the 50% effective concentration (EC50) in test [2] is 5.2 nM; in test [4], under 1 nM.

B3: XCL1 CC3 T10A (ligand)
chain: VGSEVSDKRACVSLTTQRLPCSRIKTYTITEGSLRAVIFITKRGLKVCADPQATWVRDCVRSMDRKSNTRNNMIQTKPTGTQQSTNTAVTLTG
For the molecule B3, in test [4], the EC50 is under 1 nM.

B4: XCL1 CC3 S3A (ligand)
chain: VGAEVSDKRTCVSLTTQRLPCSRIKTYTITEGSLRAVIFITKRGLKVCADPQATWVRDCVRSMDRKSNTRNNMIQTKPTGTQQSTNTAVTLTG
As to B4, the calcium flux in XCR1-expressing HEK293 cells, EC50 in test [1] is over 268 nM.

B5: XCL1 CC3 G2A (ligand)
chain: VASEVSDKRTCVSLTTQRLPCSRIKTYTITEGSLRAVIFITKRGLKVCADPQATWVRDCVRSMDRKSNTRNNMIQTKPTGTQQSTNTAVTLTG
As to B5, the calcium flux in XCR1-expressing HEK293 cells, EC50 in test [1] was over 268 nM. Also, in test [2], the fold decrease in affinity against XCL1 CC3 was over 100 fold.

B6: XCL1 CC3 R9A (ligand)
chain: VGSEVSDKATCVSLTTQRLPCSRIKTYTITEGSLRAVIFITKRGLKVCADPQATWVRDCVRSMDRKSNTRNNMIQTKPTGTQQSTNTAVTLTG
In turn, B6 came in with an EC50 in test [2] of under 1 nM.

B7: XCL1 CC3 E4A (ligand)
chain: VGSAVSDKRTCVSLTTQRLPCSRIKTYTITEGSLRAVIFITKRGLKVCADPQATWVRDCVRSMDRKSNTRNNMIQTKPTGTQQSTNTAVTLTG
For B7, the fold decrease in affinity against XCL1 CC3 in test [2] was over 100 fold.

B8: XCL1 CC3 S6A (ligand)
chain: VGSEVADKRTCVSLTTQRLPCSRIKTYTITEGSLRAVIFITKRGLKVCADPQATWVRDCVRSMDRKSNTRNNMIQTKPTGTQQSTNTAVTLTG
For B8, the EC50 in test [2] is under 1 nM.

B9: XCL1 CC3 D7A (ligand)
chain: VGSEVSAKRTCVSLTTQRLPCSRIKTYTITEGSLRAVIFITKRGLKVCADPQATWVRDCVRSMDRKSNTRNNMIQTKPTGTQQSTNTAVTLTG
For B9, the calcium flux in XCR1-expressing HEK293 cells, EC50 in test [1] is over 268 nM. The same molecule showed a concentration giving a half-maximal response (EC50) in test [4] of under 1 nM.

B10: XCL1 CC3 V5A (ligand)
chain: VGSEASDKRTCVSLTTQRLPCSRIKTYTITEGSLRAVIFITKRGLKVCADPQATWVRDCVRSMDRKSNTRNNMIQTKPTGTQQSTNTAVTLTG
Consider B10, for which, in test [2], the half-maximal effective concentration (EC50) came out at 8 nM.

B11: XCL1 CC3 V1A (ligand)
chain: AGSEVSDKRTCVSLTTQRLPCSRIKTYTITEGSLRAVIFITKRGLKVCADPQATWVRDCVRSMDRKSNTRNNMIQTKPTGTQQSTNTAVTLTG
As to B11, the calcium flux in XCR1-expressing HEK293 cells, EC50 in test [1] is over 268 nM.

B12: XCL1 WT (ligand)
chain: VGSEVSDKRTCVSLTTQRLPVSRIKTYTITEGSLRAVIFITKRGLKVCADPQATWVRDVVRSMDRKSNTRNNMIQTKPTGTQQSTNTAVTLTG
As to B12, the ^3H-IP3 accumulation in COS-7 cells transfected with XCR1 and Gqi4myr, EC50 in test [3] was determined as 17.6 nM. The EC50 in test [2] stood at 7.7 nM.
